Data published in patent US20100138941A1 (IMAGENE, published 2010).

Molecular target: T1, AIMP1 protein (SEQ ID NO: 1) consisting of 312 amino acids (Homo sapiens (Human), UniProt Q12904 1-312)
T1 construct: also called purified AIMP1 protein; AIMP1 protein antigen
T1 sequence: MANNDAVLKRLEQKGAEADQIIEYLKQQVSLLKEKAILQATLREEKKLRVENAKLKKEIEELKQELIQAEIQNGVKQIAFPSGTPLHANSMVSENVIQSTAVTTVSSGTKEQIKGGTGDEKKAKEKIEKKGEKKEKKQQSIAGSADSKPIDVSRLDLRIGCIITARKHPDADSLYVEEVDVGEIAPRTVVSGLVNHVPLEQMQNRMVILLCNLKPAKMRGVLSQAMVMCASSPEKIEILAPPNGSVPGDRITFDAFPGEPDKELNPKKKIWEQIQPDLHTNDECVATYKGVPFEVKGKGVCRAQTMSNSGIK
Assay: purified GST-gp96 fragments incubated with AIMP1, Western blot with anti-AIMP1 antibody
Description: The purified GST-gp96 fragments were cultured with AIMP1 and analyzed by Western blot using an anti-AIMP1 antibody, and the analysis results are shown in FIG. 16.

B1: GST-gp96-(699-799) (other)
chain: RRIKEDEDDKTVLDLAVVLFETATLRSGYLLPDTKAYGDRIERMLRLSLNIDPDAKVEEEPEEEPEETAEDTTEDTEQDEDEEMDVGTDEEEETAKESTAE
notes: GST-tag fusion purified on GSH agarose; also called domain involved in oligomerization; not shown: GST tag encoded by the pGEX4T3 vector (Amersham Biosciences)
B1: binds.
